Laboratory results taken from patent US20260116958A1 (University of California, published 2026).
Where a chain is given by its changes, count along the chain named.

Key:
[1] = biological target: T1, inactive BoNT/G (BoNT/Gi) (Clostridium botulinum, UniProt Q60393 1-1297); assay: scFv on yeast surface
T1 sequence: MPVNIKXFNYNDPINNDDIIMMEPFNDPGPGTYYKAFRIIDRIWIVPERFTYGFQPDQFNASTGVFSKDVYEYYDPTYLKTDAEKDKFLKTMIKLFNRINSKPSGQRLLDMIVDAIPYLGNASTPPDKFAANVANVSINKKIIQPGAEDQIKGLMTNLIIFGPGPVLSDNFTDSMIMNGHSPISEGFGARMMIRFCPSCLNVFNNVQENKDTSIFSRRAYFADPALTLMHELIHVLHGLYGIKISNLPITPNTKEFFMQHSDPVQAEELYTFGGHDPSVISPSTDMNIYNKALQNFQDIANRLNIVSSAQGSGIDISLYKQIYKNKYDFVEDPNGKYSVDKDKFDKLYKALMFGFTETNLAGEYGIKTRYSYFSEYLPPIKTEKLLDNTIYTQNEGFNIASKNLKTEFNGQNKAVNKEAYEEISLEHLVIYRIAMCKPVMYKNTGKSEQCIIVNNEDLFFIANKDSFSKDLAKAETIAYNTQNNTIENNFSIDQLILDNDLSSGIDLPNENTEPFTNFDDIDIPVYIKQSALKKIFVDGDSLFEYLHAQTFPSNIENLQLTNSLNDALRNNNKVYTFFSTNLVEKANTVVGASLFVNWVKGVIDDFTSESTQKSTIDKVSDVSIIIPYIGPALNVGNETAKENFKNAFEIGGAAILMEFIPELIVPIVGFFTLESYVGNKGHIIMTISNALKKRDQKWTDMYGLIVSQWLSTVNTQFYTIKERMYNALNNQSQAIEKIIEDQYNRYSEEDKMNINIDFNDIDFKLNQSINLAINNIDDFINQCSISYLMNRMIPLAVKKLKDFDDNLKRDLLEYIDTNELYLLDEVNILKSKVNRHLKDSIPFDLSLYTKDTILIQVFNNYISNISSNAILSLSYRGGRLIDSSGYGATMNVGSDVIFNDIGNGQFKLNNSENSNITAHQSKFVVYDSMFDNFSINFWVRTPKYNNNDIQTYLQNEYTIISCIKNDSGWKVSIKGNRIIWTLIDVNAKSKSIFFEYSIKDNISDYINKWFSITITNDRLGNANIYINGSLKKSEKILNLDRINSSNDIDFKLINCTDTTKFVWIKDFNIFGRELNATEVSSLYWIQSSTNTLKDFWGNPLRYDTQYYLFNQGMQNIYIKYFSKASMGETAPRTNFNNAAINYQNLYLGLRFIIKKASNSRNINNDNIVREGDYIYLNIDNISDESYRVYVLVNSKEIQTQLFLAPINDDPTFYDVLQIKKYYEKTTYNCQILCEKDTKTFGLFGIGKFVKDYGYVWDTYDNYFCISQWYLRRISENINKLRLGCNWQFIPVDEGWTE

[2] = biological target: T1, inactive BoNT/G (BoNT/Gi); assay: titration on yeast-displayed scFv, flow cytometry, fit y = m1 + m2*M0/(m0+m3)
[3] = biological target: T1, inactive BoNT/G (BoNT/Gi); assay: flow cytometry, scFv on yeast
[4] = biological target: T1, inactive BoNT/G (BoNT/Gi); assay: titration on yeast-displayed scFv, flow cytometry, fit y = m1 + m2*M0/(m0+m3); remark: listed apart in the source
[5] = biological target: T1, inactive BoNT/G (BoNT/Gi); assay: FACS, scFv on yeast
[6] = biological target: T1, inactive BoNT/G (BoNT/Gi); assay: titration on yeast-displayed scFv, flow cytometry, fit y = m1 + m2*M0/(m0+m3); remark: listed apart in the source
[7] = biological target: inactive BoNT/G (BoNT/Gi) (Clostridium botulinum) (UniProt Q60393); assay: flow cytometry, scFv on yeast surface
[8] = biological target: inactive BoNT/G (BoNT/Gi) (Clostridium botulinum) (UniProt Q60393); assay: flow cytometry, scFv on yeast
[9] = biological target: inactive BoNT/G (BoNT/Gi) (Clostridium botulinum) (UniProt Q60393); assay: flow cytometry, scFv on yeast; remark: listed apart in the source
[10] = biological target: T1, inactive BoNT/G (BoNT/Gi); assay: titration on yeast-displayed scFv, flow cytometry, fit y = m1 + m2*M0/(m0+m3); remark: listed apart in the source
[11] = biological target: inactive BoNT/G (BoNT/Gi) (Clostridium botulinum) (UniProt Q60393); assay: FACS, scFv on yeast
[12] = biological target: inactive BoNT/G (BoNT/Gi) (Clostridium botulinum) (UniProt Q60393); assay: flow cytometry, scFv on yeast; against hu6G6 Wt
[13] = biological target: inactive BoNT/G (BoNT/Gi) (Clostridium botulinum) (UniProt Q60393); assay: scFv on yeast surface
[14] = biological target: inactive BoNT/G (BoNT/Gi) (Clostridium botulinum) (UniProt Q60393); assay: scFv on yeast
[15] = biological target: T1, inactive BoNT/G (BoNT/Gi); assay: scFv on yeast

B1: 6G6 scFv (scFv, V domains shown)
VH: EVQLQQSGAELVKPGASVKLSCTASGFNIKDTYMHWVKQRPEQGLEWIGRIDPANGNTKYDPKFQGKATITADTSSNTAYLQLSSLTSEDTAVYYCASGPNYYGTTWFAYWGQGTTVTVSS
VL: QIVLTQSPAILSASPGEKVTMTCRASSSVSYMHWYQQKPGSSPRLWIYRTSNLASGVPARFSGSGSGTSYSLTISSMEAEDAATYYCQQYHSYPRTFGGGTKLEIKR
B1 was tested, and the Kd [1] was 17.7 nM.

B2: 6G7.1 scFv (scFv, V domains shown)
VH: DVQLQESGPELVKPGASVKVSCKASDYSFTDYNIYWVKQSHGKSLEWIGYIDPYNGGTSYNQKFKGKATLTVDKSSSTAFMYLNSLTSEDSAVYYCALYGYDPDYIDYWGQGTTLTVSS
VL: QIVLTQSPAIMSASPGEKVTITCSASSSVSYLHWFQQKPGTSPKLWIYSTSNLASGVPARFSGSGSGTSYSLTISRMEAEDAATYYCQQRSSYPYTFGGGTKLEIKA
B2 gave a Kd [2] of 1.29 nM, a Kd [3] of 2.1 nM and a Kd [1] of 0.69 nM. It also gave a Kd [4] of 0.27 nM and a Kd [5] of 0.27 nM.

B3: 6G10 scFv (scFv, V domains shown)
VH: EVQLQQSGPELVKPGASVKISCKASGYSFTGYFMHWVKQSHVKSLEWIGRINPYNGDIIYNQNFKDKASLTVDKSSSTAYMELHSLTSEDSAVYYCASLFGLYYFDYWGQGTTLTVSS
VL: EIVLTQSPAIMSASPGEKVTMTCSASSSVSYMHWYQQKSGTSPKRWIYDTSKLASGVPARFSGSGSGTSYSLTISSMEAEDAATYYCQQWSSNPLTFGAGTKLELKR
Binder B3 has a Kd [6] of 2.48 nM and a Kd [5] of 2.48 nM.

B4: hu6G9 scFv (scFv)
scFv: QVQLVQSGAEVKKPGASVKMSCKASGYTFTSYWMHWVRQAPGQGLEWIGYINPSTGYTEYNQKFKDRATLTADKSTSTAYMELRSLRSDDTAVYYCARGGNYVDYWGQGTTLTVSSVDLKSGGSTSGSGKPGSGEGSSGSARDIQMTQSPSTLSASVGERVTITCRASQGISSWLAWYQQKPGKAPKRLIYAVSTLQTGVPSRFSGSGSGTDLTLTINSLQPEDFATYYCQHLNSYPLTFGGGTKVEIK
For B4, the Kd [7] was 18.8 nM, the Kd [8] was 18.8 nM and the Kd [9] was 3.78 nM.

B5: Hu6G7.2 scFv (scFv, V domains shown)
VH: QVQLVQSGAEVKKPGASVKVSCKASDYSFTDYNIYWVRQTPGQGLEWIGYIDPYNGGTSYNQKFKGRATLTVDKSISTAYMELSRLRSDDTAVYYCALYGYDPDYTEYWGQGTTLTVSS
VL: DIVLTQSPASMAVSPGQRVTITCSASSSVSYLHWFQQKPGQSPKLWIYSTSNLASGVPARFSGSGSGTDYTLTINPMEAEDTATYYCQQRSSYPYTFGQGTKLEIKR
Binder B5 has a Kd [2] of 3.93 nM, a Kd [4] of 1.42 nM and a Kd [5] of 1.42 nM.

B6: 6G9 scFv (scFv, V domains shown)
VH: EVQLQQSGDDLVKPGASVKMSCKASGYTFTSYWMHWVKQRPGQGLEWIGYINPSTGYTEYNQKFKDKATLTADKSSSTAYMQLSSLTSEDSAVYYCARGGNYVDYWGQGTTLTVSS
VL: EIVLTQSPAIMSASPGEKVTISCSASSSVSYMYWYQQKPGSSPKPWIYRTSNLASGVPARFSGSGSGTSYSLTISSMEAEDAATYYCQQWSSNPYTFGGGTKLEIKR
B6 showed a Kd [10] of 5.6 nM and a Kd [5] of 18.8 nM.

B7: hu6G6.1 scFv (scFv)
scFv: QVQLVQSGAEVKKPGASVKLSCKASGFNIKDTYMHWVRQAPGQGLEWIGRIDPENGNTKYDPKFQGRATITAYKSINTAYLELSRLRSDDTAVYYCASGPNYYGTTWFAYWGQGTTVTVSSVDLKSGGSTSGSGKPGSGEGSSGSAREIVLTQSPSTLSASVGDRVTITCRASHGISNYLAWYQQKPGRAPKLLIYKASTLHIGVPSRFSGSGSGTEFALTISSLQPDDFSTYYCQQYNSYLPHTFGQGTRLEIK
B7 gave a Kd [8] of 4.27 nM, a Kd [11] of 3.4 nM and an Improvement over WT [12] of 5.5 fold. It also gave a Kd [13] of 1.15 nM.

B8: Hu6G6.2 scFv (scFv)
scFv: B7 scFv with T78R
Work on B8 yielded a Kd [11] of 0.22 nM and a Kd [14] of 0.22 nM.

B9: hu6G11 scFv (scFv, V domains shown)
VH: QVQLVQSGAEVAKPGASVKMSCKASGYTFTSYWMHWVRQAPGQGLEWIGYINPSTGYTEYNQKFKDRATLTADKSTSTAYMELSSLRSEDTAVYYCARGYFSFAYWGQGTLVTVSS
VL: DIVMTQSPSSLSASVRDRVTITCQASHDIKNFLNWFQQKPGKAPKLLVYDASNLQVGVPSRFSASGYGTEFTLTISSLQPEDFATYYCQQANSFPRTFGQGTKVEIKR
B9 was tested, and the Kd [15] was 4.57 nM, the “fold improvement in BoNT/Gi binding” value [15] was 25 fold and the Kd [5] was 4.5 nM.
